Assay results as given in the supplement of paper PMC7877785.
± gives the uncertainty stated by the source.

Assay: self-splicing fitness, log relative to wild type (ln ratio); higher = more splicing; Tetrahymena group I intron in knt gene, E. coli kanamycin selection, DiMSum; sequences stand for … in CUCUCU…GGAGGGAAAAGUUAUCAGGCAUGCACCUGGUAGCUAGUCUUUAAACCAAUAGAUUGCAUCGGUUUAAAAGGCAAGACCGUCAAAUUGCGGGAAAGGGGUCAACAGCCGUUCAGUACCAAGUCUCAGGGGAAACUUUGAGAUGGCCUUGCAAAGGGUAUGGUAAUAAGCUGACGGACAUGGUCCUAACCACGCAGCCAAGUCCUAAGUCAACAGAUCUUCUGUUGAUAUGGAUGCAGUUCACAGACUAAAUGUCGGUCGGGGAAGAUGUAUUCUUCUCAUAAGAUAUAGUCGGACCUCUCCUUAAUGGGAGCUAGCGGAUGAAGUGAUGCAACACUGGAGCCGCUGGGAACUAAUUUGUAUGCGAAAGUAUAUUGAUUAGUUUUGGAGUACUCGUGGUCG
Method in brief: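 A randomised library covering all eight P1ex-region intron nucleotides was built with the intron in the knt kanamycin-resistance gene on pET-22b(+) and held in E. coli BL21(DE3). Cells were grown overnight at 37°C or 30°C on LB agar, with or without 25 μg/mL kanamycin, plus 100 μg/mL carbenicillin, 50 μM IPTG and 0.2% rhamnose, and pooled colonies were amplicon-sequenced on an Illumina HiSeq 2500. DiMSum fitness is the error-weighted combination of wild-type-normalised replicate fold changes, kanamycin versus none.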

Sequence	self-splicing fitness (ln) (30 °C)	self-splicing fitness (ln) (37 °C)
CGGAAGCAAUAUUACGCUAG	-1.05 ± 0.091	-1.6 ± 0.19
CGGAAGCAAUAUUACGCUGG	-1.62 ± 0.11	-1.15 ± 0.17
CGGAAGCAAUAUUACGGAAG	–	-1.5 ± 0.33
CGGAAGCAAUAUUACGGAAU	-2.11 ± 0.16	-1.08 ± 0.19
CGGAAGCAAUAUUACGGAUC	-3.97 ± 0.37	-2.04 ± 0.27
CGGAAGCAAUAUUACGGCAC	-2.4 ± 0.25	-1.75 ± 0.38
CGGAAGCAAUAUUACGGCCA	0.0398 ± 0.097	0.672 ± 0.16
CGGAAGCAAUAUUACGGUCC	-3.37 ± 0.27	-0.831 ± 0.13
CGGAAGCAAUAUUACGUGAU	-3.44 ± 0.12	-1.96 ± 0.12
CGGAAGCAAUAUUACGUGUU	-3.75 ± 0.17	-2.43 ± 0.17
CGGAAGCAAUAUUACGUUGA	-3.33 ± 0.16	-2.65 ± 0.15
CGGCAGCAAUAUUACGAAAG	-0.748 ± 0.1	-0.538 ± 0.12
CGGCAGCAAUAUUACGAAGA	-2.55 ± 0.17	-1.25 ± 0.18
CGGCAGCAAUAUUACGACAC	-3.52 ± 0.24	-2.65 ± 0.21
CGGCAGCAAUAUUACGAGAA	-3.01 ± 0.19	-2.32 ± 0.19
CGGCAGCAAUAUUACGAGAG	-3.21 ± 0.23	-1.44 ± 0.2
CGGCAGCAAUAUUACGAGGG	-2.39 ± 0.39	-2.15 ± 0.33
CGGCAGCAAUAUUACGAGUU	-5.14 ± 0.41	-2.69 ± 0.29
CGGCAGCAAUAUUACGCAUU	-2.66 ± 0.15	-2.33 ± 0.14
CGGCAGCAAUAUUACGCCUA	-0.162 ± 0.17	0.427 ± 0.13
CGGCAGCAAUAUUACGCGAU	-2.36 ± 0.19	-1.4 ± 0.25
CGGCAGCAAUAUUACGCUAG	-2.62 ± 0.17	-1.34 ± 0.18
CGGCAGCAAUAUUACGCUGG	-3.32 ± 0.16	-2.23 ± 0.21
CGGCAGCAAUAUUACGGGGC	-2.42 ± 0.18	-2.69 ± 0.33
CGGCAGCAAUAUUACGGGUG	-0.564 ± 0.046	-0.449 ± 0.06
CGGCAGCAAUAUUACGGUGU	-4.04 ± 0.2	-2.55 ± 0.17

Sequence	self-splicing fitness (ln) (30 °C)	self-splicing fitness (ln) (37 °C)
CGGCAGCAAUAUUACGUAGU	-3.77 ± 0.21	-0.852 ± 0.12
CGGCAGCAAUAUUACGUAUA	-3.35 ± 0.27	-2.8 ± 0.23
CGGCAGCAAUAUUACGUCCU	0.101 ± 0.067	0.44 ± 0.092
CGGCAGCAAUAUUACGUCGG	-1.42 ± 0.079	-0.417 ± 0.098
CGGCAGCAAUAUUACGUGCC	-2.66 ± 0.28	–
CGGCAGCAAUAUUACGUGUG	-1.09 ± 0.036	-0.654 ± 0.05
CGGCAGCAAUAUUACGUGUU	-3.41 ± 0.13	-1.95 ± 0.13
CGGGAGCAAUAUUACGAGUU	-3.12 ± 0.27	-2.59 ± 0.36
CGGGAGCAAUAUUACGAUAG	–	-1.97 ± 0.37
CGGGAGCAAUAUUACGAUCC	-3.35 ± 0.21	-1.68 ± 0.22
CGGGAGCAAUAUUACGAUUU	-3.64 ± 0.33	-1.2 ± 0.24
CGGGAGCAAUAUUACGCCUG	-2.39 ± 0.28	–
CGGGAGCAAUAUUACGCGAU	–	-1.6 ± 0.41
CGGGAGCAAUAUUACGCGUG	-3.47 ± 0.18	-1.65 ± 0.13
CGGGAGCAAUAUUACGGCGG	-1.17 ± 0.11	-1.09 ± 0.19
CGGGAGCAAUAUUACGGGAA	–	-1.85 ± 0.41
CGGGAGCAAUAUUACGGGGC	–	-2.14 ± 0.43
CGGGAGCAAUAUUACGGGUC	–	-2.97 ± 0.48
CGGGAGCAAUAUUACGGGUU	-2.34 ± 0.32	-2.53 ± 0.26
CGGGAGCAAUAUUACGGUAA	-3.01 ± 0.34	-1.13 ± 0.21
CGGGAGCAAUAUUACGGUGA	-2.3 ± 0.33	–
CGGGAGCAAUAUUACGGUGC	-3.21 ± 0.49	–
CGGGAGCAAUAUUACGUGAA	–	-2.15 ± 0.3
CGGGAGCAAUAUUACGUGAC	-2.16 ± 0.32	-2.9 ± 0.44
CGGGAGCAAUAUUACGUGCG	-2.41 ± 0.46	-1.33 ± 0.43
CGGGAGCAAUAUUACGUUAU	-2.65 ± 0.26	-3.21 ± 0.47

Sequence	self-splicing fitness (ln) (30 °C)	self-splicing fitness (ln) (37 °C)
CGGUAGCAAUAUUACGACGA	-1.46 ± 0.19	0.22 ± 0.17
CGGUAGCAAUAUUACGAGUC	-2.07 ± 0.43	–
CGGUAGCAAUAUUACGCAAA	–	-1.6 ± 0.42
CGGUAGCAAUAUUACGCAGA	-1.8 ± 0.29	-1.91 ± 0.2
CGGUAGCAAUAUUACGCAUC	–	-2.58 ± 0.21
CGGUAGCAAUAUUACGCUAG	-2.28 ± 0.34	-0.219 ± 0.24
CGGUAGCAAUAUUACGCUGC	–	-2.17 ± 0.49
CGGUAGCAAUAUUACGCUGU	-3.2 ± 0.23	-3.02 ± 0.37
CGGUAGCAAUAUUACGGAAU	–	-1.93 ± 0.47
CGGUAGCAAUAUUACGGAUA	–	-1.54 ± 0.3
CGGUAGCAAUAUUACGGCCA	0.0804 ± 0.18	-0.151 ± 0.24
CGGUAGCAAUAUUACGGCGA	-2.69 ± 0.27	-2.13 ± 0.26
CGGUAGCAAUAUUACGGGCC	-3.47 ± 0.36	–
CGGUAGCAAUAUUACGGUAC	–	-1.22 ± 0.42
CGGUAGCAAUAUUACGGUCG	-2.62 ± 0.21	-1.65 ± 0.25
CGGUAGCAAUAUUACGUAUA	-3.71 ± 0.24	-2.53 ± 0.18
CGGUAGCAAUAUUACGUAUC	-2.67 ± 0.15	-2.83 ± 0.29
CGGUAGCAAUAUUACGUCAC	-2.59 ± 0.34	-1.82 ± 0.48
CGGUAGCAAUAUUACGUCUU	-0.667 ± 0.1	0.17 ± 0.12
CGGUAGCAAUAUUACGUGAC	–	-2.73 ± 0.41
CGGUAGCAAUAUUACGUGGA	-4.03 ± 0.27	-2.26 ± 0.17
CGGUAGCAAUAUUACGUUCC	-4.16 ± 0.33	-1.9 ± 0.26
CGGUAGCAAUAUUACGUUGC	-2.1 ± 0.14	-2.85 ± 0.33
CGGUAGCAAUAUUACGUUUG	-0.275 ± 0.082	-0.027 ± 0.098
CGUAAGCAAUAUUACGAAAU	-3.16 ± 0.27	-1.86 ± 0.25
CGUAAGCAAUAUUACGAGCU	-3.7 ± 0.37	-2.53 ± 0.41

Sequence	self-splicing fitness (ln) (30 °C)	self-splicing fitness (ln) (37 °C)
CGUAAGCAAUAUUACGAGUC	-2.82 ± 0.4	-1.92 ± 0.34
CGUAAGCAAUAUUACGCGAG	-1.63 ± 0.2	-2.56 ± 0.44
CGUAAGCAAUAUUACGCUGG	-1.56 ± 0.12	-0.793 ± 0.11
CGUAAGCAAUAUUACGCUUU	-3.21 ± 0.23	-2.31 ± 0.2
CGUAAGCAAUAUUACGGCCC	–	-1.43 ± 0.3
CGUAAGCAAUAUUACGUAGU	-3.74 ± 0.27	-1.48 ± 0.18
CGUAAGCAAUAUUACGUGAU	-3.93 ± 0.31	-2.57 ± 0.24
CGUAAGCAAUAUUACGUGCU	-3.24 ± 0.21	-1.94 ± 0.21
CGUCAGCAAUAUUACGAAGA	-2.26 ± 0.19	-2.09 ± 0.23
CGUCAGCAAUAUUACGACAC	-1 ± 0.14	0.484 ± 0.13
CGUCAGCAAUAUUACGACUU	-0.191 ± 0.069	0.132 ± 0.08
CGUCAGCAAUAUUACGAGUG	-0.944 ± 0.056	-0.00372 ± 0.077
CGUCAGCAAUAUUACGAUCU	-1.09 ± 0.086	-0.0587 ± 0.11
CGUCAGCAAUAUUACGAUUC	-0.695 ± 0.096	0.147 ± 0.087
CGUCAGCAAUAUUACGAUUG	-0.506 ± 0.076	-0.162 ± 0.084
CGUCAGCAAUAUUACGCAGC	-3.34 ± 0.2	-2.26 ± 0.19
CGUCAGCAAUAUUACGCCCA	-0.52 ± 0.12	-0.0594 ± 0.14
CGUCAGCAAUAUUACGCGGU	-2.93 ± 0.16	-2.27 ± 0.19
CGUCAGCAAUAUUACGGAAC	-2.22 ± 0.27	-2.61 ± 0.25
CGUCAGCAAUAUUACGGGGG	-3.62 ± 0.2	-2.05 ± 0.14
CGUCAGCAAUAUUACGGUAA	-1.1 ± 0.26	-1.3 ± 0.23
CGUCAGCAAUAUUACGGUGU	-2.66 ± 0.12	-0.454 ± 0.1
CGUCAGCAAUAUUACGUAAA	-1.97 ± 0.06	-1.21 ± 0.097
CGUCAGCAAUAUUACGUAUA	–	-0.724 ± 0.16
